Paper PMC11291072 (bioRxiv, 2024)

Molecular target: T1, ERK2-phosphorylated human PPARγ2 AF-1 domain (pS112 + pT75), residues 1-136 (human, UniProt P37231-1 1-136)
T1 sequence: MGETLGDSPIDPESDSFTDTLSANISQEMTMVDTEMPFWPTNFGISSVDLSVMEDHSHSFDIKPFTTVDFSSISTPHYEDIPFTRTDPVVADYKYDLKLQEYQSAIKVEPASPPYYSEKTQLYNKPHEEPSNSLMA
Assay: NMR titration

binding result: binds
B1: Pin1 PPIase domain (residues 42-163) (domain or fragment)
chain: SSGGKNGQGEPARVRCSHLLVKHSQSRRPSSWRQEKITRTKEEALELINGYIQKIKSGEEDFESLASQFSDCSSAKARGDLGAFSRGQMQKPFEDASFALRTGEMSGPVFTDSGIHIILRTE
